Measurements published in the FLAb antibody collection.

Assay: patients with anti-drug antibodies; higher = more immunogenic

Protein	patients with anti-drug antibodies
unnamed (protein) chain 1: QVQLQESGPGLVKPSQTLSLTCTVSGGSISSGDYFWSWIRQLPGKGLEWIGHIHNSGTTYYNPSLKSRVTISVDTSKKQFSLRLSSVTAADTAVYYCARDRGGDYYYGMDVWGQGTTVTVSS chain 2: EIVLTQSPGTLSLSPGERATLSCRASQGISRSYLAWYQQKPGQAPSLLIYGASSRATGIPDRFSGSGSGTDFTLTISRLEPEDFAVYYCQQFGSSPWTFGQGTKVEIK	0%
unnamed (protein) chain 1: QIQLQQSGPEVVKPGASVKISCKASGYTFTDYYITWVKQKPGQGLEWIGWIYPGSGNTKYNEKFKGKATLTVDTSSSTAFMQLSSLTSEDTAVYFCANYGNYWFAYWGQGTQVTVSA chain 2: DIVLTQSPASLAVSLGQRATISCKASQSVDFDGDSYMNWYQQKPGQPPKVLIYAASNLESGIPARFSGSGSGTDFTLNIHPVEEEDAATYYCQQSNEDPWTFGGGTKLEIK	35%
unnamed (protein) chain 1: QVQLVESGGGVVQPGRSLRLSCAASGFTFSVYGMNWVRQAPGKGLEWVAIIWYDGDNQYYADSVKGRFTISRDNSKNTLYLQMNGLRAEDTAVYYCARDLRTGPFDYWGQGTLVTVSS chain 2: EIVLTQSPDFQSVTPKEKVTITCRASQSIGSSLHWYQQKPDQSPKLLIKYASQSFSGVPSRFSGSGSGTDFTLTINSLEAEDAAAYYCHQSSSLPFTFGPGTKVDIK	0%
unnamed (protein) chain 1: QVQLQQSGAEVKKPGASVKVSCEASGYTFPSYVLHWVKQAPGQGLEWIGYINPYNDGTQYNEKFKGKATLTRDTSINTAYMELSRLRSDDTAVYYCARGFGGSYGFAYWGQGTLVTVSS chain 2: DIQLTQSPSSLSASVGDRVTMTCSASSSVSSSYLYWYQQKPGKAPKLWIYSTSNLASGVPARFSGSGSGTDFTLTISSLQPEDSASYFCHQWNRYPYTFGGGTRLEIK	10%
unnamed (protein) chain 1: QVQLVQSGAEVKKPGASVKVSCKASGYTFTNHYMHWVRQAPGQGLEWMGIINPISGSTSNAQKFQGRVTMTRDTSTSTVYMELSSLRSEDTAVYYCARDIVDAFDFWGQGTMVTVSS chain 2: AIQLTQSPSSLSASVGDRVTITCRASQGISSALVWYQQKPGKAPKLLIYDASSLESGVPSRFSGSGSGTDFTLTISSLQPEDFATYYCQQFNDYFTFGPGTKVDIK	5%
unnamed (protein) chain 1: QVQLVQSGAEVKKPGASVKVSCKVSGYTFTSYDINWVRQAPGKGLEWMGWIYPGDGSIKYNEKFKGRVTMTVDKSTDTAYMELSSLRSEDTAVYYCARRGEYGNYEGAMDYWGQGTLVTVSS chain 2: DIQMTQSPSSLSASVGDRVTITCKASQSVDYDGHSYMNWYQQKPGKAPKLLIYAASNLESGVPSRFSGSGSGTDFTLTISSLQPEDFATYYCQQSDENPLTFGGGTKVEIK	0.9%
unnamed (protein) chain 1: EVQLVESGGGLVQPGGSLRLSCAASGYSFTGYYIHWVRQAPGKGLEWVARVIPNAGGTSYNQKFKGRFTLSVDNSKNTAYLQMNSLRAEDTAVYYCAREGIYWWGQGTLVTVSS chain 2: DIQMTQSPSSLSASVGDRVTITCRSSQSLVHSNGNTFLHWYQQKPGKAPKLLIYTVSNRFSGVPSRFSGSGSGTDFTLTISSLQPEDFATYFCSQTTHVPWTFGQGTKVEIK	0%
unnamed (protein) chain 1: EVQLVESGGGLVKPGGSLRLSCAASGFTFSNYAMSWVRQTPEKRLEWVATISRSGSYSYFPDSVQGRFTISRDNAKNSLYLQMNSLRAEDTAVYYCARLGGYDEGDAMDSWGQGTTVTVSS chain 2: DIVMTQTPLSLSVTPGQPASISCKSSQSLLESDGKTYLNWYLQKPGQSPQLLIYLVSILDSGVPDRFSGSGSGTDFTLKISRVEAEDVGVYYCLQATHFPQTFGGGTKVEIK	17%
unnamed (protein) chain 1: EVQLVESGGGLVEPGGSLRLSCAVSGFDFEKAWMSWVRQAPGQGLQWVARIKSTADGGTTSYAAPVEGRFIISRDDSRNMLYLQMNSLKTEDTAVYYCTSAHWGQGTLVTVSS chain 2: SYELTQPPSVSVSPGQTARITCSGEALPMQFAHWYQQRPGKAPVIVVYKDSERPSGVPERFSGSSSGTTATLTITGVQAEDEADYYCQSPDSTNTYEVFGGGTKLTVL	0%
unnamed (protein) chain 1: QVQLVQSGAEVKKPGASVKVSCKVSGYTLSDLSIHWVRQAPGKGLEWMGGFDPQDGETIYAQKFQGRVTMTEDTSTDTAYMELSSLKSEDTAVYYCATGSSSSWFDPWGQGTLVTVSS chain 2: DIQMTQSPSSVSASVGDRVTITCRASQGISSWLAWYQQKPGKAPKLLIYGASNLESGVPSRFSGSGSGTDFTLTISSLQPEDFANYYCQQANSFPWTFGQGTKVEIK	0.4%
unnamed (protein) chain 1: EVTLRESGPGLVKPTQTLTLTCTLYGFSLSTSDMGVDWIRQPPGKGLEWLAHIWWDDVKRYNPALKSRLTISKDTSKNQVVLKLTSVDPVDTATYYCARTVSSGYIYYAMDYWGQGTLVTVSS chain 2: DIQMTQSPSSLSASVGDRVTISCRASQDIRNYLNWYQQKPGKAPKLLIFYTSKLHSGVPSRFSGSGSGTDYTLTISSLQPEDIATYYCQQGNTLPLTFGGGTKVEIK	3%
unnamed (protein) chain 1: QVQLVQPGAEVVKPGASVKLSCKTSGYTFTSNWMHWVKQAPGQGLEWIGEIDPSDSYTNYNQNFQGKAKLTVDKSTSTAYMEVSSLRSDDTAVYYCARGSNPYYYAMDYWGQGTSVTVSS chain 2: EIVLTQSPAIMSASPGERVTMTCSASSGVNYMHWYQQKPGTSPRRWIYDTSKLASGVPARFSGSGSGTDYSLTISSMEPEDAATYYCHQRGSYTFGGGTKLEIK	33%
unnamed (protein) chain 1: EVQLVESGGGLVQPGGSLRLSCAASGFSLSNYYVTWVRQAPGKGLEWVGIIYGSDETAYATSAIGRFTISRDNSKNTLYLQMNSLRAEDTAVYYCARDDSSDWDAKFNLWGQGTLVTVSS chain 2: AIQMTQSPSSLSASVGDRVTITCQASQSINNELSWYQQKPGKAPKLLIYRASTLASGVPSRFSGSGSGTDFTLTISSLQPDDFATYYCQQGYSLRNIDNAFGGGTKVEIK	1.8%
unnamed (protein) chain 1: EVQLVESGGGLVQPGGSLRLSCAASGYVFTDYGMNWVRQAPGKGLEWMGWINTYIGEPIYADSVKGRFTFSLDTSKSTAYLQMNSLRAEDTAVYYCARGYRSYAMDYWGQGTLVTVSS chain 2: DIQMTQSPSSLSASVGDRVTITCKASQNVGTNVAWYQQKPGKAPKALIYSASFLYSGVPYRFSGSGSGTDFTLTISSLQPEDFATYYCQQYNIYPLTFGQGTKVEIK	8%
unnamed (protein) chain 1: QVQLVQSGAEVKKPGSSVKVSCKASGYTFTSYRMHWVRQAPGQGLEWIGYINPSTGYTEYNQKFKDKATITADESTNTAYMELSSLRSEDTAVYYCARGGGVFDYWGQGTLVTVSS chain 2: DIQMTQSPSTLSASVGDRVTITCSASSSISYMHWYQQKPGKAPKLLIYTTSNLASGVPARFSGSGSGTEFTLTISSLQPDDFATYYCHQRSTYPLTFGQGTKVEVK	19%
unnamed (protein) chain 1: EVQLVESGGGLVQPGGSLRLSCAASGFTFSSYGMSWVRQAPGKGLELVASINSNGGSTYYPDSVKGRFTISRDNAKNSLYLQMNSLRAEDTAVYYCASGDYWGQGTTVTVSS chain 2: DIVMTQSPLSLPVTPGEPASISCRSSQSLVYSNGDTYLHWYLQKPGQSPQLLIYKVSNRFSGVPDRFSGSGSGTDFTLKISRVEAEDVGVYYCSQSTHVPWTFGQGTKVEIK	0%
unnamed (protein) chain 1: QVQLQESGPGLVKPSETLSLTCTVSGYSITGGYLWNWIRQPPGKGLEWIGYISYDGTNNYKPSLKDRVTISRDTSKNQFSLKLSSVTAADTAVYYCARYGRVFFDYWGQGTLVTVSS chain 2: DIVMTQSPLSLPVTPGEPASISCRSSQSIVHSNGNTYLQWYLQKPGQSPQLLIYKVSNRLYGVPDRFSGSGSGTDFTLKISRVEAEDVGVYYCFQGSHVPWTFGQGTKVEIK	0%
unnamed (protein) chain 1: QVQLVQSGAEVKKPGASVKVSCKASGYTFTRYGISWVRQAPGQGLEWMGWISTYSGNTNYAQKLQGRVTMTTDTSTSTAYMELRSLRSDDTAVYYCARRQLYFDYWGQGTLVTVSS chain 2: EIVMTQSPATLSVSPGERATLSCRASQSVSSNLAWFQQKPGQAPRPLIYDASTRATGVPARFSGSGSGTDFTLTISSLQSEDFAVYYCQQYDNWPLTFGGGTKVEIK	3%
unnamed (protein) chain 1: EVQLLESGGVLVQPGGSLRLSCAASGFTFSNFGMTWVRQAPGKGLEWVSGISGGGRDTYFADSVKGRFTISRDNSKNTLYLQMNSLKGEDTAVYYCVKWGNIYFDYWGQGTLVTVSS chain 2: DIQMTQSPSSLSASVGDSITITCRASLSINTFLNWYQQKPGKAPNLLIYAASSLHGGVPSRFSGSGSGTDFTLTIRTLQPEDFATYYCQQSSNTPFTFGPGTVVDFR	1.3%
